The record followed here is article PMC9848473.

The test has as its target Bacillus subtilis Rel N-terminal domain region (RelBs^NTD; residues 1 to 373) (B. subtilis). Kind of test: ITC; DarB or DarB variant (200 uM) in the syringe titrated into RelBs^NTD or variant (15 uM) in the cell; 25 °C; 50 mM Hepes pH 7.5, 500 mM KCl, 500 mM NaCl, 10 mM MgCl2, 1 mM TCEP, 0.002% mellitic acid. (Isothermal titration calorimetry measures the heat released or taken up as one component is titrated into another.)

Positions count from the first letter of the chain named. Numbers in names are those of the source.

B1: Bacillus subtilis DarB E34R (natural protein)
chain: MISLQSDQLLEATVGQFMIEADKVAHVQVGNNLRHALLVLTKTGYTAIPVLDPSYRLHGLIGTNMIMNSIFGLERIEFEKLDQITVEEVMLTDIPRLHINDPIMKGFGMVINNGFVCVENDEQVFEGIFTRRVVLKELNKHIRSLNK
With B1, the Kd (in general, the equilibrium constant for the complex coming apart) was 10.6 µM.

B2: Bacillus subtilis DarB E74G/R75G (natural protein)
chain: B1 chain with R34E, E74G, R75G
In turn, B2 registered a Kd of 8.9 µM.
